In US20200262877A1, “ION CHANNEL-BINDING PEPTIDES AND METHODS OF USE THEREOF” (priority 2017, published 2020):

Columns and labels:
[1] = target: T1, Nav1.7 (Homo sapiens, UniProt Q15858); assay: cell-based; type: cell-based; settings: 100% = no change; for Activity of Nav1.7 with peptide, expressed as a percentage of the reference compound: peptide at 0.2 μM; for Activity of Nav1.7 with peptide (percentage of the reference compound): peptide at 20 μM
T1 construct: host or cells: HEK293 or CHO

[2] = target: Nav1.5 (Homo sapiens, UniProt Q14524); assay: in vitro; settings: 100% = no change; for Activity of Nav1.5 with peptide, expressed as a percentage of the reference compound: peptide at 0.2 μM; for Activity of Nav1.5 with peptide (percentage of the reference compound): peptide at 20 μM
Nav1.5, sequence (Q14524 whole entry): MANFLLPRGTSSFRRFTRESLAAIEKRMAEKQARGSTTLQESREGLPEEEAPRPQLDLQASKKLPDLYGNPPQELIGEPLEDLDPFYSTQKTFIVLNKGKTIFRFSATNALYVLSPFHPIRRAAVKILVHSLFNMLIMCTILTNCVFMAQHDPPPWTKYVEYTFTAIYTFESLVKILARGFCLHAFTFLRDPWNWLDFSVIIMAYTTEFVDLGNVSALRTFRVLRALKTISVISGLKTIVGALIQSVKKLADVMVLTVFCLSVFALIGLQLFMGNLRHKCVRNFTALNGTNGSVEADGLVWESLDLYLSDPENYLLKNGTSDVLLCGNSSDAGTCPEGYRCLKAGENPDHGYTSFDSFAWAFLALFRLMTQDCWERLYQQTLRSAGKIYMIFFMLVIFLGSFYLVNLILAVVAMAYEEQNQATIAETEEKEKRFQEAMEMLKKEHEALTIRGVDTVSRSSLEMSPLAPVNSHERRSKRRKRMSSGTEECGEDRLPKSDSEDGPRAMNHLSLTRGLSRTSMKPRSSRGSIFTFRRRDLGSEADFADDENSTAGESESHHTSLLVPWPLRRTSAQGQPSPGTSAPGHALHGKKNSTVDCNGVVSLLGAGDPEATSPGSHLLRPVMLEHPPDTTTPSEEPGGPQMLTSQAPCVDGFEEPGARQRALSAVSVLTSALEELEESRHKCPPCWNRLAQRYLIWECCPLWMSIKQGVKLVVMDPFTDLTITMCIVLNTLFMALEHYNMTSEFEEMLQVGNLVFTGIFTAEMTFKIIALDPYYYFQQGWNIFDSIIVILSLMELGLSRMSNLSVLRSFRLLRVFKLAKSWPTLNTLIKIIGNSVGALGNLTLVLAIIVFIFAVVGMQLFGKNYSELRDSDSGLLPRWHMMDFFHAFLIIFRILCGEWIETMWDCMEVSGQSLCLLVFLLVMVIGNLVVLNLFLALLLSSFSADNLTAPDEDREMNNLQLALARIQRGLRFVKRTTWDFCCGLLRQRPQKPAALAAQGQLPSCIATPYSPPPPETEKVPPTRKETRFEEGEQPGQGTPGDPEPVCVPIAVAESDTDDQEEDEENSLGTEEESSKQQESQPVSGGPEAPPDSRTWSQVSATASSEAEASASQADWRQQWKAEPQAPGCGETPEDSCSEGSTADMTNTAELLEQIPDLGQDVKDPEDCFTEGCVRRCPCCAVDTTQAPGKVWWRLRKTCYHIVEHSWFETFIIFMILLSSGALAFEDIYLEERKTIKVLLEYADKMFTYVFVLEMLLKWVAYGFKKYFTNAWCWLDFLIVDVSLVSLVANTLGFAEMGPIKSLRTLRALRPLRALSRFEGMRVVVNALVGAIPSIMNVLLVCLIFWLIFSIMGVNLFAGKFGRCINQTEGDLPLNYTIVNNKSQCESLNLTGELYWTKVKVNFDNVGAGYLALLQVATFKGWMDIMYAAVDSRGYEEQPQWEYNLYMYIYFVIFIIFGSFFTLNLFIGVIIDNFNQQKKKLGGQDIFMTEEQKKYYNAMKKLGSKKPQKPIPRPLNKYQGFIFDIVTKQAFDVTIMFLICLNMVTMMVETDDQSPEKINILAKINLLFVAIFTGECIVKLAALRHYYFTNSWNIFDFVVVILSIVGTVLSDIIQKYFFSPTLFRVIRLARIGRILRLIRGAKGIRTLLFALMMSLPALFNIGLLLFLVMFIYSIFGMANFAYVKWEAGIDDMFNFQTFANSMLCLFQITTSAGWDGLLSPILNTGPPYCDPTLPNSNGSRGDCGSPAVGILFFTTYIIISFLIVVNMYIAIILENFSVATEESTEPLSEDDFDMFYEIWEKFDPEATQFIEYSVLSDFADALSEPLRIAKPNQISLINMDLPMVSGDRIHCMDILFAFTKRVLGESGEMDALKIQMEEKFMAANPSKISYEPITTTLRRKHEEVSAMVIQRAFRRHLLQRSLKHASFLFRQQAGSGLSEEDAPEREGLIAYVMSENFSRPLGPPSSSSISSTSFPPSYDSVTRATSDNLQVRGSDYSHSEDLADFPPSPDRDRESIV
In short: (§1)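 Peptides were tested in duplicate at final 20 μM and 200 nM, with concentration set by amino acid analysis, in HEPES-buffered saline. They were applied for at least 5 min to HEK293 or CHO cells transfected with each channel. Currents were expressed as % inhibition, 1-(Ipeptide/Icontrol)×100, or % activation, Ipeptide/Icontrol×100, against a channel-matched reference compound.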

[3] = target: hERG (Homo sapiens, UniProt Q12809); assay: in vitro; settings: 100% = no change, <100% = inhibition
In short: as §1

[4] = system: GABA; assay: Ion channel panel (IonWorks Barracuda): GABA; type: cell-based; settings: 100% = no change, <100% = inhibition
In short: as §1

[5] = target: T2, α4β2 (Homo sapiens, UniProt P17787+P43681); assay: Ion channel panel (IonWorks Barracuda): α4β2; type: cell-based; settings: 100% = no change, <100% = inhibition
T2 construct: host or cells: HEK293 or CHO
In short: as §1

[6] = target: T3, Cav2.1 (Homo sapiens, UniProt O00555); assay: cell-based; settings: 100% = no change, <100% = inhibition
T3 construct: host or cells: HEK293 or CHO
In short: as §1

[7] = target: T4, Cav2.2 (Homo sapiens, UniProt Q00975); assay: cell-based; settings: 100% = no change, <100% = inhibition
T4 construct: host or cells: HEK293 or CHO
In short: as §1

[8] = target: T5, Kv2.1 (Homo sapiens, UniProt Q14721); assay: cell-based; settings: 100% = no change, <100% = inhibition
T5 construct: host or cells: HEK293 or CHO
In short: as §1

[9] = target: T6, Kv1.3 (Homo sapiens, UniProt P22001); assay: cell-based; type: cell-based; settings: 100% = no change, <100% = inhibition
T6 construct: host or cells: HEK293 or CHO
In short: as §1

[10] = target: T7, Kv1.1 (Homo sapiens, UniProt Q09470); assay: cell-based; type: cell-based; settings: 100% = no change, <100% = inhibition
T7 construct: host or cells: HEK293 or CHO
In short: as §1

[11] = target: T8, Kv1.2 (Homo sapiens, UniProt P16389); assay: cell-based; type: cell-based; settings: 100% = no change, <100% = inhibition
T8 construct: host or cells: HEK293 or CHO
T8 sequence (P16389 whole entry): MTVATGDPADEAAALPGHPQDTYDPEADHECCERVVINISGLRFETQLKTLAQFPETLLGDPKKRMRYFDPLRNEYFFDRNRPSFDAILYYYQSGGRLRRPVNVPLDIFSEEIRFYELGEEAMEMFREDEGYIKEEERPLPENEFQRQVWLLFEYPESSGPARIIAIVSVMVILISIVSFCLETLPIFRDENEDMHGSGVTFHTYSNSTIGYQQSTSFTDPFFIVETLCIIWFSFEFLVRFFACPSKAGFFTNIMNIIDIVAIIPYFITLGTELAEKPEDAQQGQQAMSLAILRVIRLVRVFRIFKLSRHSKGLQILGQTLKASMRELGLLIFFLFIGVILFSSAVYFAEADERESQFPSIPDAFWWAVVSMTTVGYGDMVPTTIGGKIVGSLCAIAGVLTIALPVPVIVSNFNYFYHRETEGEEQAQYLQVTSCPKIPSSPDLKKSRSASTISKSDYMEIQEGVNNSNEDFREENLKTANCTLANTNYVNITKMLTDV
In short: as §1

[12] = target: T9, 5HT3a (Homo sapiens, UniProt P46098); assay: Ion channel panel (IonWorks Barracuda): 5HT3a; type: cell-based
T9 construct: host or cells: HEK293 or CHO
T9 sequence (P46098 whole entry, looked up): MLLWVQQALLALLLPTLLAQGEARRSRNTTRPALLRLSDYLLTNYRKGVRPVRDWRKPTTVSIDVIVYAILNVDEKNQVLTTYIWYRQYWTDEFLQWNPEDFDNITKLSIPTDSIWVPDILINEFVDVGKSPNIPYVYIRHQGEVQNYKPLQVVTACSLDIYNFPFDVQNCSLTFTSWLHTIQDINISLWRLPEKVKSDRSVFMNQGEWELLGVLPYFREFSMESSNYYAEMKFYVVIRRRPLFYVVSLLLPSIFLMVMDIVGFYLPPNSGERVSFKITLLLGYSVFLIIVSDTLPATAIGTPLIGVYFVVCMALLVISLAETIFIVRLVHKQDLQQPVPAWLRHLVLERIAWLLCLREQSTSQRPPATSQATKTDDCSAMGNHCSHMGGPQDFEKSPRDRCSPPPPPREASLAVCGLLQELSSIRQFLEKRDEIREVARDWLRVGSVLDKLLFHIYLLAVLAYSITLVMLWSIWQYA
In short: as §1

[13] = target: T10, Kir2.1 (Homo sapiens, UniProt P63252); assay: Ion channel panel (IonWorks Barracuda): Kir2.1; type: cell-based; settings: 100% = no change, <100% = inhibition
T10 construct: host or cells: HEK293 or CHO
T10 sequence (P63252 whole entry): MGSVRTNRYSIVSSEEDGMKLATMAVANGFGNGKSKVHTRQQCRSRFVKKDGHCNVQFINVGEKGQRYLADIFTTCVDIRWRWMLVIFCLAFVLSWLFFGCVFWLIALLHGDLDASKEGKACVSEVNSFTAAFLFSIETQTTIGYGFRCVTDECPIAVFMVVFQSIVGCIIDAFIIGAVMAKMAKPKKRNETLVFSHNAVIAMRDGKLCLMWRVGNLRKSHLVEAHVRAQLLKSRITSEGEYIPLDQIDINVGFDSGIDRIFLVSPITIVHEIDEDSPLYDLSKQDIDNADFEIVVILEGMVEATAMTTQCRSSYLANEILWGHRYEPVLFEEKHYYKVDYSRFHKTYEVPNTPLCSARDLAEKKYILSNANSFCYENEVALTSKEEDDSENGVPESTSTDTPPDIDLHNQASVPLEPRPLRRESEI
In short: as §1

[14] = target: T11, NR2B (Homo sapiens, UniProt Q13224); assay: Ion channel panel (IonWorks Barracuda): NR2B; type: cell-based; settings: 100% = no change, <100% = inhibition
T11 construct: host or cells: HEK293 or CHO
In short: as §1

[15] = target: T12, α3β4 (Homo sapiens, UniProt P30926+P32297); assay: Ion channel panel (IonWorks Barracuda): α3β4; type: cell-based; settings: 100% = no change, <100% = inhibition
T12 construct: host or cells: HEK293 or CHO
In short: as §1

[16] = target: T13, TRPA1 (Homo sapiens, UniProt O75762); assay: Ion channel panel (IonWorks Barracuda): TRPA1; type: cell-based; settings: 100% = no change, <100% = inhibition
T13 construct: host or cells: HEK293 or CHO
In short: as §1

[17] = target: T14, TRPV1 (Homo sapiens, UniProt Q8NER1); assay: Ion channel panel (IonWorks Barracuda): TRPV1; type: cell-based; settings: 100% = no change, <100% = inhibition
T14 construct: host or cells: HEK293 or CHO
In short: as §1

[18] = target: T15, NR2A (Homo sapiens, UniProt Q12879); assay: Ion channel panel (IonWorks Barracuda): NR2A; type: cell-based; settings: 100% = no change, <100% = inhibition
T15 construct: host or cells: HEK293 or CHO
In short: as §1

[19] = first of two Nav1.7 columns (probably TP1)
[20] = second of two Nav1.7 columns (probably TP2)
[21] = first of two Nav1.5 columns (probably TP1)
[22] = second of two Nav1.5 columns (probably TP2)

T1 sequence (Q15858 whole entry): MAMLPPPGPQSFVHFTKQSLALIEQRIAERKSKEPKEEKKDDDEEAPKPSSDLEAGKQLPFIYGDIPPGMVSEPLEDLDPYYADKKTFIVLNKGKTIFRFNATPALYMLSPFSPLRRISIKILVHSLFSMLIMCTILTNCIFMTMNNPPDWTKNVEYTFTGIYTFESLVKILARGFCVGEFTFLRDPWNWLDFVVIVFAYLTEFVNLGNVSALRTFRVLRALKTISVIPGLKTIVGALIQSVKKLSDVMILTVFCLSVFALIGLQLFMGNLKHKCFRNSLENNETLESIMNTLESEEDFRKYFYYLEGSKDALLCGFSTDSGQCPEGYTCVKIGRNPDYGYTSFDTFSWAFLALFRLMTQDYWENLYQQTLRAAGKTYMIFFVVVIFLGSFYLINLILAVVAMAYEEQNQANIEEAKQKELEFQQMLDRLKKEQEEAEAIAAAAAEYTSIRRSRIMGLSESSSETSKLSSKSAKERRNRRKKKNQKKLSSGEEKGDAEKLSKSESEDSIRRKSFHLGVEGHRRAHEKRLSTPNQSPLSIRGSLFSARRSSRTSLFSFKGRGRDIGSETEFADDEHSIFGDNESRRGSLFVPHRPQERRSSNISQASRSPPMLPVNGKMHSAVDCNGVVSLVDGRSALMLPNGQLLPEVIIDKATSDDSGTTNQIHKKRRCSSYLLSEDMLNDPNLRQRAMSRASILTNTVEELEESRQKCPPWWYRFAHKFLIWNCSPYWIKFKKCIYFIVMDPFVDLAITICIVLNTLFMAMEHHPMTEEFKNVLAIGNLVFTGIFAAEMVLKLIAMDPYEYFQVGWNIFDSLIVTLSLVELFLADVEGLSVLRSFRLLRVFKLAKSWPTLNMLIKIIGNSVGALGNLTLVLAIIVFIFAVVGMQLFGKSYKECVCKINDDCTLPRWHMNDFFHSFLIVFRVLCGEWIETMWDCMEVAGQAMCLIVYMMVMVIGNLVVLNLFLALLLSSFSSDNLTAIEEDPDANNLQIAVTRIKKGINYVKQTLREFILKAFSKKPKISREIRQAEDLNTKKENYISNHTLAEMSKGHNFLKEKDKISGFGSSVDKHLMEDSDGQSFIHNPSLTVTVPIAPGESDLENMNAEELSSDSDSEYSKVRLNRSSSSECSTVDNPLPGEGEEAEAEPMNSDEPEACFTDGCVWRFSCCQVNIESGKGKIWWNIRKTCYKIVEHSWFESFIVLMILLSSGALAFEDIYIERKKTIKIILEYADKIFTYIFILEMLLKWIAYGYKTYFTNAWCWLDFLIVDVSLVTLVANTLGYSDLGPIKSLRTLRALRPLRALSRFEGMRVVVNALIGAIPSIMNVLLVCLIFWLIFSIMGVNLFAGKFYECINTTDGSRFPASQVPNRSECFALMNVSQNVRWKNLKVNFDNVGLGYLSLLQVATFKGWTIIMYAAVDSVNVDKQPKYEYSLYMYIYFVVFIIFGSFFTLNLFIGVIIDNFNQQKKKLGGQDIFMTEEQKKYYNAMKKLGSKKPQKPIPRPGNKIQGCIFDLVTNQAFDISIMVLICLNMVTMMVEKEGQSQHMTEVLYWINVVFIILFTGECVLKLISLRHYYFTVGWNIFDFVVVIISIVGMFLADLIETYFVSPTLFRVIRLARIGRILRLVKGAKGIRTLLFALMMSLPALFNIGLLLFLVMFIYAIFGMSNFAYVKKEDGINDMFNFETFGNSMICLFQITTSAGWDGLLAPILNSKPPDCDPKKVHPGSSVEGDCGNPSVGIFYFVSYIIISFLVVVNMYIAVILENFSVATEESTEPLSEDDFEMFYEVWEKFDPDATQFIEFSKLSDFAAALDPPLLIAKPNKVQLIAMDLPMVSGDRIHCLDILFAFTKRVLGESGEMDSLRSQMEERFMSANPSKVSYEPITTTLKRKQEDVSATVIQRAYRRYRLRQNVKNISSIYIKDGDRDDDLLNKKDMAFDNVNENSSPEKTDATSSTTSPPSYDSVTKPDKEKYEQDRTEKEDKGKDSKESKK

30 (GSQVSTNKKCSNTSQCYKTCEKVVGVAAGKCMNGKCICYP) [compound 30]
Activity of Nav1.7 with peptide, expressed as a percentage of the reference compound [1, 19]: 103% | Activity of Nav1.7 with peptide, expressed as a percentage of the reference compound [1, 20]: 125% | Activity of Nav1.7 with peptide (percentage of the reference compound) [1, 19]: 84% | Activity of Nav1.7 with peptide (percentage of the reference compound) [1, 20]: 54% | Activity of Nav1.5 with peptide, expressed as a percentage of the reference compound [2, 21]: 105% | Activity of Nav1.5 with peptide, expressed as a percentage of the reference compound [2, 22]: 102% | Activity of Nav1.5 with peptide (percentage of the reference compound) [2, 21]: 94% | Activity of Nav1.5 with peptide (percentage of the reference compound) [2, 22]: 96% | Activity of hERG with peptide, expressed as a percentage of the reference compound ([3]; peptide at 0.2 μM): 95% | Activity of hERG with peptide (percentage of the reference compound) ([3]; peptide at 20 μM): 95% | Activity of GABA with peptide, expressed as a percentage of the reference compound ([4]; peptide at 0.2 μM): 102% | Activity of GABA with peptide (percentage of the reference compound) ([4]; peptide at 20 μM): 114% | Activity of a4b2 with peptide, expressed as a percentage of the reference compound ([5]; peptide at 0.2 μM): 89% | Activity of a4b2 with peptide (percentage of the reference compound) ([5]; peptide at 20 μM): 92% | Activity of Cav2.1 with peptide, expressed as a percentage of the reference compound ([6]; peptide at 0.2 μM): 111% | Activity of Cav2.1 with peptide (percentage of the reference compound) ([6]; peptide at 20 μM): 103% | Activity of Cav2.2 with peptide, expressed as a percentage of the reference compound ([7]; peptide at 0.2 μM): 96% | Activity of Cav2.2 with peptide (percentage of the reference compound) ([7]; peptide at 20 μM): 101% | Activity of Kv2.1 with peptide, expressed as a percentage of the reference compound ([8]; peptide at 0.2 μM): 107% | Activity of Kv2.1 with peptide (percentage of the reference compound) ([8]; peptide at 20 μM): 106% | Activity of Kv1.3 with peptide, expressed as a percentage of the reference compound ([9]; peptide at 0.2 μM): 89% | Activity of Kv1.3 with peptide (percentage of the reference compound) ([9]; peptide at 20 μM): 71% | Activity of Kv1.1 with peptide, expressed as a percentage of the reference compound ([10]; peptide at 0.2 μM): 98% | Activity of Kv1.1 with peptide (percentage of the reference compound) ([10]; peptide at 20 μM): 102% | Activity of Kv1.2 with peptide, expressed as a percentage of the reference compound ([11]; peptide at 0.2 μM): 110% | Activity of Kv1.2 with peptide (percentage of the reference compound) ([11]; peptide at 20 μM): 92% | Activity of 5HT3a with peptide (percentage of the reference compound) [12]: 91% | Activity of 5HT3a with peptide, expressed as a percentage of the reference compound [12]: 71% | Activity of Kir2.1 with peptide, expressed as a percentage of the reference compound ([13]; peptide at 0.2 μM): 102% | Activity of Kir2.1 with peptide (percentage of the reference compound) ([13]; peptide at 20 μM): 93% | Activity of NR2B with peptide, expressed as a percentage of the reference compound ([14]; peptide at 0.2 μM): 92% | Activity of NR2B with peptide (percentage of the reference compound) ([14]; peptide at 20 μM): 88% | Activity of a3b4 with peptide, expressed as a percentage of the reference compound ([15]; peptide at 0.2 μM): 91% | Activity of a3b4 with peptide (percentage of the reference compound) ([15]; peptide at 20 μM): 101% | Activity of TRPA1 with peptide, expressed as a percentage of the reference compound ([16]; peptide at 0.2 μM): 118% | Activity of TRPA1 with peptide (percentage of the reference compound) ([16]; peptide at 20 μM): 111% | Activity of TRPV1 with peptide, expressed as a percentage of the reference compound ([17]; peptide at 0.2 μM): 107% | Activity of TRPV1 with peptide (percentage of the reference compound) ([17]; peptide at 20 μM): 84% | Activity of NR2A with peptide, expressed as a percentage of the reference compound ([18]; peptide at 0.2 μM): 111% | Activity of NR2A with peptide (percentage of the reference compound) ([18]; peptide at 20 μM): 98%
